Results taken from patent US5837499A, “DNA encoding C5A receptor antagonists having substantially no agonist activity and methods of expressing same” (priority 1995, dated 1998).
Where a SMILES comes first, the peptide text is derived from it.

Assays:
C5a receptor [1] = target: T1, C5a receptor (Homo sapiens, UniProt P21730); assay: C5a induced Ca++ rise in fura-2 loaded neutrophils (antagonist IC50 / agonist EC50); format: cell-based; settings: for Concentration up to which tested and agonist activity not detected (calcium rise): highest concentration tested, agonist activity was not detected
T1 construct: Neutrophils were purified from human peripheral blood; endogenous in cells; host or cells: neutrophils from human peripheral blood
T1 sequence (P21730 1-350): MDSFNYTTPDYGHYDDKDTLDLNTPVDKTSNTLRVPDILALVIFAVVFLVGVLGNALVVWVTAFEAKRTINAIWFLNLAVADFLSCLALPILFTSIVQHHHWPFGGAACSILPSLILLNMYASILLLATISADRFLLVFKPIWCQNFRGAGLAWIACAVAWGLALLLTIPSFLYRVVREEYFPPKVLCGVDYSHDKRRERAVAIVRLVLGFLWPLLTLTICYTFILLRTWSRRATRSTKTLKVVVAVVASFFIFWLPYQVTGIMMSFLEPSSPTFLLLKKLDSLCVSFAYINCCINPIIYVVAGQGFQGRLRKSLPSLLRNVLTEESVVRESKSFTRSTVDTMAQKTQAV
Text: The antagonism of the instant C5a analogues may be quantified as an IC50 in the calcium rise assay disclosed in Agents and Actions 21:375-378 (1987), described in detail in Example 7.
See Hugli et al., CRC Crit. Rev. Immunol. 1:321-326 (1981) and PCT WO 92/10205. A quantitative measure of this property may also be obtained using the calcium rise assay disclosed in Seligmann et al., supra, also described in Example 7. EC50 is a measure of agonistic activity. […] Applicants have not detected agonist activity of the instant C5a analogues up to a concentration of at Least about 8.0×10^-7 M, and preferably at least about 3.0×10^-6 M in the same calcium rise assay.
Recombinant human C5a was dissolved in Hanks buffer containing 0.01% Tween-20, and all stock dilutions of C5a were made in this buffer. The acetoxymethyl ester of fura-2 (fura 2AM, Molecular Probes) was dissolved in DMSO. Neutrophils were purified from human peripheral blood by sedimentation in 6% hetastarch (HESPAN, DuPont, Waukegan, Ill.), followed by counter flow elutriation as described in Chapman-Kirkland et al., J. Immunol. Meth. 142:95-104 (1991). Purified cells (2×10^6 /ml) were mixed with 0.2 uM fura- 2AM and incubated for 30 min at 37° C. in HEPES buffered Hanks solution without calcium or magnesium. Fifteen minutes before the assay, the cell suspension was transferred to a curvette containing a stir bar and calcium was added to 1 mM. The cell suspension was incubated with stirring at 37° C. Assays were terminated within 5 h of cell purification and a standard control response was obtained periodically to insure that the cell responses were not changing over the time of the experiment. The amount of fluorescence was determined using an SLM 8000 spectrofluorometer (SLM-Aminco Instruments, Urbana, Ill.). Curvettes were placed in the fluorometer and after obtaining a baseline for 10 sec, the C5a receptor antagonists to be tested for antagonistic properties were added and any change in fluoresence excitation ratio of 340 nm/380 nm (emission of 510 nm) was measured. Forty seconds after analogue addition, a challenge dose of C5a was added to a final concentration of 100 pM and the resulting change in excitation ratio was measured.
IC50 values were used as a measure of antagonist potency. These values are defined as the concentration of C5a analogue needed to reduce the calcium rise response of the 100 pM C5a challenge dose by 50%. EC50 values were used as a measure of agonist potency. […]

C5a receptor [2] = target: T1, C5a receptor; assay: Receptor binding assay: displacement of [125I]Bolton-Hunter-labelled C5a from PMNL membranes; settings: Table 4, [125I]BH-C5a 4.0 pM, 120 min at 4° C., Cheng-Prusoff
Experimental: C5a and C5a receptor antagonists were tested for their affinity for the C5a receptor. […] PMNLs were resuspended in Hanks balanced salt solution, without Ca^++ and Mg^++ and which contained 10 mM HEPES; at pH 7.3, 2.5 mM MgCl2, 100 units/ml DNAse I, 0.1 mM PMISF, 10 μg/ml aprotonin and 10 μg/ml leupeptin. They were then equilibrated at 400 psi for 20 min at 4° C. in a nitrogen cavitation bomb. After evacuation into 3 volumes 0.5 M KHCO3 containing 25 mM EDTA and the protease inhibitors listed above, the gelatinous material was removed with forceps and the mixture was centrifuged at 400×g for 10 min at 4° C. The resulting supernatant was centrifuged at 50,000×g for 60 min at 4° C. The pellets from the aliquots representing 200×10^6 cells were stored at -70° C. For binding studies, these membranes were resuspended at an equivalent of 20×10^6 cells/ml in 50 mM HEPES at pH 7.3, containing 1 mM CaCl2, 5 mM MgCl2, 0.1 mM PMSF, 0.1% bacitracin and 0.5% BSA.
Nonspecific binding was determined in the presence of 10 nM unlabelled C5a. The binding reaction was initiated by the addition of the PMNL membranes and was continued for 120 min at 4° C. Bound and free radioactivity were separated by vacuum filtration through GF/C glass fiber filters (Whatman), pretreated for 90 min with 0.05% PEI (polyethyleneimine) using a Cell Harvester (Brandel, Gaithersburg, Md.). Filters were washed with 3×5 ml of ice-cold 5 mM Tris buffer at pH 7.4 and counted in a multiwell Gamma counter (Genesys). Data were analyzed using the non-linear regression analysis program, RS/1 (Bolt, Beranek and Newman, Boston) and expressed as IC50 values. The results are set forth below in Table 4 as Ki values using the Cheng-Presoff equation. See Braunwalder et al., supra

[3] = system: New Zealand White rabbits (C5a-induced enhancement in vascular permeability); assay: Rabbit dermal model of inflammation ([125I]-BSA exudation after intradermal C5a); format: in vivo
Experimental: All experiments were performed on male New Zealand White rabbits weighing 2.5-3.0 kg. The backs; of the rabbits were shaved and 40-50 skin sites were designated with markers of different colors. Different stimuli (i.e., C5a, C5a analogue, C5a+C5a analogue, vehicle control, etc.) were injected intradermally at 0.1 ml/site using a sterile, disposable, 26 gauge, 0.5 in. needle and 1.0 cc tuberculin syringe. I.D. injections were administered in replicates of six, roughly 45 minutes before euthanization. C5a alone was injected at a dose of 50 ng/site, and the C5a receptor antagonists were co-injected at various concentrations with the same dose of C5a. At 20 minutes prior to euthanization, 18-36 uCi of [125I]-labeled bovine serum albumin in 1.0 ml physiological saline were introduced into the systemic circulation via the marginal auricular vein. At 45 minutes, the rabbit was euthanized with an I.V. overdose of sodium pentobarbital. […]
After death, the dorsal skin was excised and pinned to a wooden dissecting board. […] This procedure reduced variation among skin sites and decreased background radioactivity. […] Injection sites were then analyzed for their radioactive content using a Gamma Counter (Genesys).

[4] = system: New Zealand White rabbits (C5a-induced neutropenia); assay: C5a-induced neutropenia in the rabbit; format: in vivo; settings: i.v. bolus; for Inhibition of C5a-induced neutropenia vs vehicle-treated rabbits: 100 ng C5a i.v.
Experimental: All experiments were performed on male New Zealand White rabbits weighing 2.5-3.0 kg. Rabbits were anesthetized with 10 mg/kg xylazine and 50 mg/kg ketamine administered in combination intramuscularly. A 25 gauge butterfly catheter was inserted in the lateral ear vein to use for infusions. Each blood sample (0.2 ml) was collected from the central ear artery into a plastic syringe fitted with a 25 gauge, 5/8 inch needle and charged with 7.5% EDTA as an anticoagulant. Blood was immediately expressed into a microcentrifuge tubes containing 10 microliters of 7.5% EDTA. An initial arterial blood sample (#1) was obtained and immediately thereafter vehicle or the C5a analogue of Example 8 was infused intravenously (bolus injection). Twenty seconds later, a second blood sample (#2) was obtained and twenty seconds thereafter 100 ng of C5a in 0.2 ml were infused intravenously (bolus injection). Twenty seconds later, a third blood (#3) sample was taken. Thirty minutes later, a second round of blood sample (#4)--20 seconds--C5a infusion--20 seconds--blood sample (#5) was performed. Blood samples were evaluated by automated hematologic analysis (Technicon H*1) using software specific for rabbit blood. Reductions in neutrophil counts (number per milliliter) induced by C5a(C5a-induced neutropenia, determined by comparing blood sample #3 to #2 and #5 to #4) were compared between vehicle-treated and C5a analogue-treated animals.

Molecule	Ki (C5a receptor [2]) [nM]	Concentration up to which tested and agonist activity not detected (calcium rise) (C5a receptor [1]) [µM]	also measured
CC[C@H](C)[C@H](N)C(=O)N[C@@H](CO)C(=O)N[C@@H](Cc1ccccc1)C(=O)N[C@@H](CCCCN)C(=O)N[C@@H](CC(=O)O)C(=O)N[C@@H](CCSC)C(=O)N[C@@H](CCC(N)=O)C(=O)N[C@@H](CC(C)C)C(=O)NCC(=O)N[C@@H](CCCNC(=N)N)C(=O)O [Decapeptide, reference compound] (H-ISFKDMQLGR-OH)	–	–	Agonist / antagonist character (C5a receptor [1]; result in words): significant agonist activity
C5a(1-71,T1M,C27S,Q71C) (protein, UniProt P01031 678-748, looked up, fragment T1M C27S Q71C, C5a anaphylatoxin) MLQKKIEEIAAKYKHSVVKKCCYDGASVNNDETCEQRAARISLGPRCIKAFTECCVVASQLRANISHKDMC	0.2	> 3	ID50 (50% reduction in the radioactivity produced by C5a) ([3]; intradermal co-injection with 50 ng C5a/site): 70 ng/site; Pro-inflammatory reaction (agonist properties in vivo) ([3]; intradermal, 175 ng/site): did not cause a pro- inflammatory reaction; Inhibition of C5a-induced neutropenia vs vehicle-treated rabbits ([4]; 30-minute C5a challenge interval): 41%; Inhibition of C5a-induced neutropenia vs vehicle-treated rabbits ([4]; 40-second C5a challenge interval): 67%; Effect on baseline neutrophil counts (agonistic, C5a-like properties) ([4]; before C5a challenge): did not alter baseline neutrophil counts from normal
C5a(1-71,T1M,C27S,Q71S) (protein, UniProt P01031 678-748, looked up, fragment T1M C27S Q71S, C5a anaphylatoxin, comparison agonist) MLQKKIEEIAAKYKHSVVKKCCYDGASVNNDETCEQRAARISLGPRCIKAFTECCVVASQLRANISHKDMS	7.5	–	–
C5a(1-71,T1M,C27S) (protein, UniProt P01031 678-748, looked up, fragment T1M C27S, C5a anaphylatoxin, comparison agonist) MLQKKIEEIAAKYKHSVVKKCCYDGASVNNDETCEQRAARISLGPRCIKAFTECCVVASQLRANISHKDMQ	3	–	–
C5a(1-71,T1M,C27S,Q71H) (protein, UniProt P01031 678-748, looked up, fragment T1M C27S Q71H, C5a anaphylatoxin, comparison agonist) MLQKKIEEIAAKYKHSVVKKCCYDGASVNNDETCEQRAARISLGPRCIKAFTECCVVASQLRANISHKDMH	0.15	–	–
C5a(1-71,T1M,C27S,Q71R) (protein, UniProt P01031 678-748, looked up, fragment T1M C27S Q71R, C5a anaphylatoxin, comparison agonist) MLQKKIEEIAAKYKHSVVKKCCYDGASVNNDETCEQRAARISLGPRCIKAFTECCVVASQLRANISHKDMR	0.35	–	–
C5a(1-71,T1M,C27S,H67F,Q71C) (protein, UniProt P01031 678-748, looked up, fragment T1M C27S H67F Q71C, C5a anaphylatoxin) MLQKKIEEIAAKYKHSVVKKCCYDGASVNNDETCEQRAARISLGPRCIKAFTECCVVASQLRANISFKDMC	0.1	> 0.8	–
C5a(1-71,T1M,C27S,Q71D) (protein, UniProt P01031 678-748, looked up, fragment T1M C27S Q71D, C5a anaphylatoxin, comparison agonist) MLQKKIEEIAAKYKHSVVKKCCYDGASVNNDETCEQRAARISLGPRCIKAFTECCVVASQLRANISHKDMD	8.5	–	–
Analogue 22: dimeric form of analogue No. 8, disulfide linked through the C-terminal cysteines (protein, UniProt P01031 678-748, looked up, fragment T1M C27S Q71C, C5a anaphylatoxin disulfide-linked dimer, dimeric form of analogue No. 8, disulfide linked through the C-terminal cysteines) MLQKKIEEIAAKYKHSVVKKCCYDGASVNNDETCEQRAARISLGPRCIKAFTECCVVASQLRANISHKDMC	0.04	–	–
C5a(1-71,T1M,C27S,Q71L) (protein, UniProt P01031 678-748, looked up, fragment T1M C27S Q71L, C5a anaphylatoxin, comparison agonist) MLQKKIEEIAAKYKHSVVKKCCYDGASVNNDETCEQRAARISLGPRCIKAFTECCVVASQLRANISHKDML	0.035	–	–
C5a(1-72,T1M,C27S,L72C) (protein, UniProt P01031 678-749, looked up, fragment T1M C27S L72C, C5a anaphylatoxin) MLQKKIEEIAAKYKHSVVKKCCYDGASVNNDETCEQRAARISLGPRCIKAFTECCVVASQLRANISHKDMQC	0.9	> 1.5	–
C5a(1-70,T1M,C27S,M70C) (protein, UniProt P01031 678-747, looked up, fragment T1M C27S M70C, C5a anaphylatoxin) MLQKKIEEIAAKYKHSVVKKCCYDGASVNNDETCEQRAARISLGPRCIKAFTECCVVASQLRANISHKDC	–	> 1	–
